Assay results reported in publication PMC11143254, “Cryo-EM structure of cadmium-bound human ABCB6” (Communications Biology, 2024).

Target: the molecule itself
Assay: cryo-EM structure; nanodisc-reconstituted hABCB6^core (0.5 mg/mL) incubated with 800 uM CdCl2 and 1 mM GSH (or PC2) at 4 °C for 30 min; C2 symmetry; inward-facing homodimer

B1: human ABCB6 core region lacking TMD0 (hABCB6^core) (domain or fragment, UniProt Q9NP58 206-842, looked up)
chain: APGLRPQSYTLQVHEEDQDVERSQVRSAAQQSTWRDFGRKLRLLSGYLWPRGSPALQLVVLICLGLMGLERALNVLVPIFYRNIVNLLTEKAPWNSLAWTVTSYVFLKFLQGGGTGSTGFVSNLRTFLWIRVQQFTSRRVELLIFSHLHELSLRWHLGRRTGEVLRIADRGTSSVTGLLSYLVFNVIPTLADIIIGIIYFSMFFNAWFGLIVFLCMSLYLTLTIVVTEWRTKFRRAMNTQENATRARAVDSLLNFETVKYYNAESYEVERYREAIIKYQGLEWKSSASLVLLNQTQNLVIGLGLLAGSLLCAYFVTEQKLQVGDYVLFGTYIIQLYMPLNWFGTYYRMIQTNFIDMENMFDLLKEETEVKDLPGAGPLRFQKGRIEFENVHFSYADGRETLQDVSFTVMPGQTLALVGPSGAGKSTILRLLFRFYDISSGCIRIDGQDISQVTQASLRSHIGVVPQDTVLFNDTIADNIRYGRVTAGNDEVEAAAQAAGIHDAIMAFPEGYRTQVGERGLKLSGGEKQRVAIARTILKAPGIILLDEATSALDTSNERAIQASLAKVCANRTTIVVAHRLSTVVNADQILVIKDGCIVERGRHEALLSRGGVYADMWQLQQGQEETSEDTKPQTMER
notes: human ABCB6, core region lacking the N-terminal TMD0, residues 206-842, codon-optimized synthetic gene; Homodimeric half-transporter; The C-terminal tag (thrombin site, eGFP, 10xHis) was removed by thrombin; residues of the cleavage site may remain; Modelled residues exclude the extreme N-terminus and residues 827-842; not shown: eGFP, C-terminal, cleaved; 10xHis, C-terminal, cleaved
- stoichiometry N: 2
